Measured values taken from US7988958B2, “Enterococcus and Streptococcus strains and bacteriocins” (The United States of America as represented by the …, priority 2005, dated 2011).

B1: Bacteriocin 760: bacteriocin produced by Enterococcus durans/faecium/hirae NRRL B-30745 (strain 760); amino acid sequence SEQ ID NO 2 (protein, listed as Streptococcus cricetus)
chain: NRWYCNSAAGGVGGAAVCGLAGYVGEAKENIAGEVRKGWGMAGGFTHNKACKSFPGSGWASG

What was measured:
S. enteritidis 204 = assay: Spot test; assay type: cell-based; settings: for Inhibiting activity in Spot Test: crude antimicrobial preparation (CAP); for Inhibiting Activity, Spot Test: purified bacteriocin
Campylobacter jejuni = assay: Antagonistic activity of products purified by Methods A and B; assay type: cell-based; design: Specific Activity UE/ml: unit not given here
C. jejuni NCTC 11168 = assay: Thermostability and effect of pH on bacteriocin activity (spot test); assay type: physicochemical, Campylobacter jejuni; settings: for Antimicrobial activity after treatment: heating to about 90° C.
Campylobacter spp. B-3 = assay: MIC by agar diffusion; assay type: cell-based; settings: Campylobacter spp. strain B-3
Protocol: (§1) The susceptibility of Campylobacter spp. to purified preparations of bacteriocins 760 and E50-52 was determined using strains isolated from broiler chicks as described above in Example 1. Antagonistic activity of the bacteriocins was assessed on the basis of minimum inhibitory concentrations (MICs) which were determined by agar diffusion. […] All the tested bacteriocins are highly antagonistic to the Campylobacter spp. strains.

Campylobacter spp. Cez-4 = assay: MIC by agar diffusion; assay type: cell-based; settings: Campylobacter spp. strain Cez-4
Protocol: as §1

Campylobacter spp. F-1 = assay: MIC by agar diffusion; assay type: cell-based; settings: Campylobacter spp. strain F-1
Protocol: as §1

Campylobacter spp. G-1 = assay: MIC by agar diffusion; assay type: cell-based; settings: Campylobacter spp. strain G-1
Protocol: as §1

Campylobacter spp. G-2 = assay: MIC by agar diffusion; assay type: cell-based; settings: Campylobacter spp. strain G-2
Protocol: as §1

Campylobacter spp. I/U-1 = assay: MIC by agar diffusion; assay type: cell-based; settings: Campylobacter spp. strain I/U-1
Protocol: as §1

[1] = system: Campylobacter spp. Ind18/2; assay: MIC by agar diffusion; assay type: cell-based; settings: Campylobacter spp. strain Ind18/2
Protocol: as §1

Campylobacter spp. K-10 = assay: MIC by agar diffusion; assay type: cell-based; settings: Campylobacter spp. strain K-10
Protocol: as §1

Campylobacter spp. P-21 = assay: MIC by agar diffusion; assay type: cell-based; settings: Campylobacter spp. strain P-21
Protocol: as §1

Campylobacter spp. P-24 = assay: MIC by agar diffusion; assay type: cell-based; settings: Campylobacter spp. strain P-24
Protocol: as §1

Campylobacter spp. P-27 = assay: MIC by agar diffusion; assay type: cell-based; settings: Campylobacter spp. strain P-27
Protocol: as §1

Campylobacter spp. P-28 = assay: MIC by agar diffusion; assay type: cell-based; settings: Campylobacter spp. strain P-28
Protocol: as §1

Campylobacter spp. P-2 = assay: MIC by agar diffusion; assay type: cell-based; settings: Campylobacter spp. strain P-2
Protocol: as §1

Campylobacter spp. P-31 = assay: MIC by agar diffusion; assay type: cell-based; settings: Campylobacter spp. strain P-31
Protocol: as §1

Campylobacter spp. P-32 = assay: MIC by agar diffusion; assay type: cell-based; settings: Campylobacter spp. strain P-32
Protocol: as §1

S. enteritidis 4 = assay: MIC by spot test; assay type: cell-based
S. gallinarum pullorum = assay: MIC by spot test; assay type: cell-based
E. coli O157:H7 Y-63 = assay: MIC by spot test; assay type: cell-based
E. coli O157:H7 lab. 39 = assay: MIC by spot test; assay type: cell-based
Proteus mirabilis = assay: MIC by spot test; assay type: cell-based
Morganella morganii = assay: MIC by spot test; assay type: cell-based
Helicobacter pylori = assay: MIC of purified bacteriocins and antibiotic by Spot Test; assay type: cell-based; settings: H. pylori; 24 hours at 37° C., microaerobic
Protocol: (§2) The minimal inhibiting concentrations (MICs) of bacteriocins 760 and 50-52 and Methicillin were determined by Spot Test. Various concentrations of purified bacteriocins (μg/ml) in a volume of 10 μl was added to cultures of Staphylococcus aureus, Staphylococcus epidermidis, Pseudomonas aeruginosa, and Helicobacter pylori. The cultures were incubated for about 24 hours at about 37° C. under aerobic conditions for all but Helicobacter pylori which was incubated under microaerobic conditions.

Pseudomonas aeruginosa = assay: as above; assay type: cell-based; settings: P. aeruginosa; 24 hours at 37° C., aerobic
Protocol: as §2

Staphylococcus aureus = assay: as above; assay type: cell-based; settings: S. aureus; 24 hours at 37° C., aerobic
Protocol: as §2

[2] = system: Staphylococcus epidermidis; assay: as above; assay type: cell-based; settings: S. epidermidis; 24 hours at 37° C., aerobic
Protocol: as §2

Molecule | Inhibiting activity in Spot Test (S. enteritidis 204) | Inhibiting Activity, Spot Test (S. enteritidis 204) | Activity UE/ml (Campylobacter jejuni; isolated by Method A) | Specific Activity UE/ml (Campylobacter jejuni; isolated by Method A) | Activity UE/ml (Campylobacter jejuni; isolated by Method B) | Specific Activity UE/ml (Campylobacter jejuni; isolated by Method B) | Stability at different values of pH (C. jejuni NCTC 11168; about pH 10) | Antimicrobial activity after treatment (C. jejuni NCTC 11168) | Stability at different values of pH (C. jejuni NCTC 11168; pH about 3.0 to about 9.0) | MICs (Campylobacter spp. B-3) [µg/mL] | MICs (Campylobacter spp. Cez-4) [µg/mL] | MICs (Campylobacter spp. F-1) [µg/mL] | MICs (Campylobacter spp. G-1) [µg/mL] | MICs (Campylobacter spp. G-2) [µg/mL] | MICs (Campylobacter spp. I/U-1) [µg/mL] | MICs [1] [µg/mL] | MICs (Campylobacter spp. K-10) [µg/mL] | MICs (Campylobacter spp. P-21) [µg/mL] | MICs (Campylobacter spp. P-24) [µg/mL] | MICs (Campylobacter spp. P-27) [µg/mL] | further results
Bacteriocin 50-52: bacteriocin produced by Enterococcus durans/faecium/hirae NRRL B-30746 (strain 50-52); amino acid sequence SEQ ID NO 1 (TTKNYGNGVCNSVNWCQCGNVWASCNLATGCAAWLCKLA; listed as Enterococcus faecium) | 12,800 AU/ml | 12,800 AU/ml | 6,400 UE/ml | 85,333 | 12,800 UE/ml | 320,000 | became inactive | retained it | stable | 0.05 | 0.1 | 0.1 | 0.05 | 0.1 | 0.05 | 0.05 | 0.05 | 0.05 | 0.05 | 0.1 | MICs (Campylobacter spp. P-28): 0.1 µg/mL; MICs (Campylobacter spp. P-2): 0.05 µg/mL; MICs (Campylobacter spp. P-31): 0.1 µg/mL; MICs (Campylobacter spp. P-32): 0.1 µg/mL; MICs (S. enteritidis 4): 0.1 µg/mL; MICs (S. gallinarum pullorum): 0.1 µg/mL; MICs (E. coli O157:H7 Y-63): 0.1 µg/mL; MICs (E. coli O157:H7 lab. 39): 0.1 µg/mL; MICs (Proteus mirabilis): 1.6 µg/mL; MICs (Morganella morganii): 3.2 µg/mL; MIC of purified Bacteriocins and Antibiotic (Helicobacter pylori): 0.8 µg/mL; MIC of purified Bacteriocins and Antibiotic (Pseudomonas aeruginosa): 0.8 µg/mL; MIC of purified Bacteriocins and Antibiotic (Staphylococcus aureus): 0.1 µg/mL; MIC of purified Bacteriocins and Antibiotic [2]: 0.4 µg/mL
B1 | 12,800 AU/ml | 12,800 AU/ml | 12,800 UE/ml | 71,111 | 51,200 UE/ml | 284,444 | became inactive | retained it | stable | 0.05 | 0.1 | 0.05 | 0.05 | 0.05 | 0.05 | 0.05 | 0.05 | 0.1 | 0.05 | 0.05 | MICs (Campylobacter spp. P-28): 0.05 µg/mL; MICs (Campylobacter spp. P-2): 0.05 µg/mL; MICs (Campylobacter spp. P-31): 0.05 µg/mL; MICs (Campylobacter spp. P-32): 0.05 µg/mL; MIC (S. enteritidis 4): 400 µg/mL; MIC (S. gallinarum pullorum): 400 µg/mL; MIC (E. coli O157:H7 Y-63): 1600 µg/mL; MIC (E. coli O157:H7 lab. 39): 1600 µg/mL; MIC (Proteus mirabilis): 3200 µg/mL; MIC (Morganella morganii): 3200 µg/mL; MIC of purified Bacteriocins and Antibiotic (Helicobacter pylori): 0.2 µg/mL; MIC of purified Bacteriocins and Antibiotic (Pseudomonas aeruginosa): 0.4 µg/mL; MIC of purified Bacteriocins and Antibiotic (Staphylococcus aureus): 1.6 µg/mL; MIC of purified Bacteriocins and Antibiotic [2]: 1.6 µg/mL
